Test results taken from the Human Domainome abundance scans (Beltran et al. 2025).

B1: Bromodomain adjacent to zinc finger domain protein 2B, residues 1927 to 1982; numbered along this chain, Q9UIF8 (parent)
chain: KSIMKVYCQICRKGDNEELLLLCDGCDKGCHTYCHRPKITTIPDGDWFCPACIAKA
B2: Zinc finger homeobox protein 3, residues 2244 to 2299; numbered along this chain, Q15911 (parent)
chain: SSRTRFTDYQLRVLQDFFDANAYPKDDEFEQLSNLLNLPTRVIVVWFQNARQKARK

Variants of: B1
Assay: abundance fitness (aPCA) (normalised: wild type 0, dead -1); higher = more abundant; growth selection in yeast, the domain comes from the species named
Details: Homo sapiens

Abundance fitness, by site and new letter:
Y7: E -0.018 | D 0.142 | N 0.057
G45: C -0.235 | K -0.425 | V -0.139 | W -0.728
P43: T -0.003 | W -0.188 | H -0.217 | E -0.041 | F -0.451 | L -0.163
A51: Y -0.346 | D 0.026 | H -0.214 | W -0.175 | R -0.087 | K -0.162
T32: A -0.065 | R -0.078
C34: P -0.675 | F -0.766 | H -0.216 | G -0.495 | W -0.895 | S -0.584 | K -0.561
K38: R -0.122 | E -0.186 | N -0.139 | T -0.016 | W -0.216 | H -0.153 | C -0.128 | L 0.015
K5: C -0.125 | I -0.334
W47: P -0.165 | E -0.338 | R -0.115 | G -0.289 | I -0.092
A56: S -0.317 | D -0.019 | W -0.331 | M -0.28
R36: Q -0.1 | V 0.053
D24: A 0.048 | R -0.061 | E 0.219 | T 0.06 | F -0.273
C30: Y 0.004 | P -0.459
I10: Y -0.135 | H 0.079 | W -0.03 | S -0.055
A54: G -0.086 | V -0.053 | Y -0.102 | H -0.164 | S -0.082 | K -0.036
P37: W -0.31 | F -0.333 | Y -0.602
V6: M -0.064 | N -0.124 | P -0.143 | K 0.117 | L -0.076 | E -0.092
S2: P -0.243 | V -0.156 | W -0.379 | M -0.23
K13: Y -0.271 | H -0.076 | I -0.136 | M -0.002 | D -0.047 | G -0.047

Variants of: B2
Assay: as above
Details: Homo sapiens

Abundance fitness, by site and new letter:
R51: S -0.256 | H -0.382 | L -0.137 | G -0.606 | C -0.168
R55: N -0.218 | L -0.001 | V -0.048 | P 0.051 | K 0.005 | D -0.104 | I -0.093 | T -0.043 | M -0.211 | G -0.128 | H 0.104 | A -0.172 | C -0.229 | Q 0.049 | W -0.302 | F -0.069 | S 0.142 | Y -0.073
K53: R -0.116 | V -0.085 | H 0.013 | S 0.062 | T -0.008 | E 0.162 | A 0.032 | P -0.237 | N 0.138 | M 0.008 | G -0.005 | Q -0.109 | D 0.202 | Y -0.12 | L -0.013 | C -0.029 | W -0.083 | I -0.019
K56: G -0.029 | Y -0.158 | D -0.026 | H -0.053 | P 0.004 | R -0.028 | F -0.089 | N 0.103 | M -0.045 | I -0.302 | Q -0.163 | T -0.032 | A 0.063
A54: G 0.081
A50: L -0.159 | W -0.496 | Q -0.197 | M 0.047 | Y -0.196 | R -0.061 | T -0.08 | S -0.084 | N 0.009 | V -0.322 | P -1.01
Q52: K -0.077 | H -0.092 | P -0.263 | D 0.239 | A -0.008 | W -0.204 | S -0.023 | Y -0.14 | V 0.128 | F -0.21 | R -0.135 | C 0.002 | N -0.144 | T -0.036 | M -0.142 | L -0.107
